Biological target: mouse MBL (mannose-binding lectin of mouse serum)

B1: recombinant mouse MASP-2 (rMASP-2) (protein)
chain: SKWPEPVFGRLVSPGFPEKYADHQDRSWTLTAPPGYRLRLYFTHFDLELSYRCEYDFVKLSSGTKVLATLCGQESTDTEQAPGNDTFYSLGPSLKVTFHSDYSNEKPFTGFEAFYAAEDVDECRVSLGDSVPCDHYCHNYLGGYYCSCRAGYILHQNKHTCSALCSGQVFTGRSGYLSSPEYPQPYPKLSSCTYSIRLEDGFSVILDFVESFDVETHPEAQCPYDSLKIQTDKGEHGPFCGKTLPPRIETDSHKVTITFATDESGNHTGWKIHYTSTARPCPDPTAPPNGSISPVQATYVLKDRFSVFCKTGFELLQGSVPLKSFTAVCQKDGSWDRPMPECSIIDCGPPDDLPNGHVDYITGPQVTTYKAVIQYSCEETFYTMSSNGKYVCEADGFWTSSKGEKLPPVCEPVCGLSTHTIGGRIVGGQPAKPGDFPWQVLLLGQTTAAAGALIHDNWVLTAAHAVYEKRMAASSLNIRMGILKRLSPHYTQAWPEEIFIHEGYTHGAGFDNDIALIKLKNKVTINGSIMPVCLPRKEAASLMRTDFTGTVAGWGLTQKGLLARNLMFVDIPIADHQKCTTVYEKLYPGVRVSANMLCAGLETGGKDSCRGDSGGALVFLDNETQRWFVGGIVSWGSINCGAAGQYGVYTKVINYIPWNENIISNF
C4 deposition on mannan-coated wells (sMAP-/- mouse serum): the amount of C4 was restored by up to 46% of that of wild-type serum in a dose-dependent manner and reached a plateau
